Target: Biotin-labeled fluorescent peptide …(S*)PDK-(5-FAM)
Test: cell-based or functional assay

## GSK3α, rHuman (from UniProt P49840 1-483) (enzyme)
  EC50 of enzyme titration (TR-FRET ratio, 400 nM substrate, 200 µM ATP): 0.025 µg/mL

## GSK3β, rHuman (from UniProt P49841 1-420) (enzyme)
  EC50 of enzyme titration (TR-FRET ratio, 400 nM substrate, 200 µM ATP): 0.245 µg/mL

From patent publication US20050170442A1
